{"source": "patent US20020031818A1", "about": "“Modification of Mdm2 activity” (priority 2000, published 2002)", "key": {"Mdm2 [1]": {"molecular_target": "T1, Mdm2 (Homo sapiens, UniProt Q00987)", "T1 sequence (Q00987 whole entry)": "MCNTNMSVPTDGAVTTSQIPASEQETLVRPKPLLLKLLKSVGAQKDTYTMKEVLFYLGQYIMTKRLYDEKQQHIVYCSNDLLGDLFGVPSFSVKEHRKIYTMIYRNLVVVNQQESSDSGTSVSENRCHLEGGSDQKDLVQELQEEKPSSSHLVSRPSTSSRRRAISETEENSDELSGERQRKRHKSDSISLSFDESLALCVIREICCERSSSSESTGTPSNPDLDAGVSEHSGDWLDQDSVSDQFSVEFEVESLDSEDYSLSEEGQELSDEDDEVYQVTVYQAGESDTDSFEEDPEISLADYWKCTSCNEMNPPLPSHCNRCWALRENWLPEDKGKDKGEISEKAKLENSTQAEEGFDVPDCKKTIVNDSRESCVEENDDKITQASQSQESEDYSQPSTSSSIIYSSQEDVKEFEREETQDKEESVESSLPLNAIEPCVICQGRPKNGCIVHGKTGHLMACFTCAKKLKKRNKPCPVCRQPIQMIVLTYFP", "experiment": "In vivo sumoylation of Mdm2 in p53/Mdm2 double null cells", "format": "cell-based", "set-up": "expressed in transfected cells; host or cells: p53/Mdm2 double null cells", "conditions": "Flag-Mdm2, HA-SUMO, p19 wt 1.5 μg each; MG132", "description": "FIGS. 10A-10D. A. Time dependent Mdm2 sumoylation in vitro. Bacterially expressed and purified GST-Mdm2 was subjected to in vitro sumoylation reaction in the presence of E1, Ubc9, and ^35S-Sumos. Reaction was terminated after 10,30,50 or 60 minutes, Proteins were separated on 8% gel, Commassie stained, dryed and exposed overnight (upper panel). Lower panel depicts Commassie blue staining of Mdm2 forms. B. A peptide corresponding to the Ubc-9 binding site on Mdm2 decreases Mdm2 in vitro sumoylation of Mdm2 in a time-dependent manner. (Upper part) The specific Ubc-9-binding site peptide or a nonspecific peptide was added to the reaction for the indicated time periods. […] The lower panel depicts a Coomassie staining visualizing relative amounts of sumoylated and non-sumoylated forms of purified GST-Mdm2. C. The Mdm2 sumoylation assay was carried out in the presence of Ubc-9-binding site peptide (mu9bs) or a nonspecific peptide ([…]) which were added to the reaction at the indicated concentrations. […] D. A peptide corresponding to the Ubc-9 binding site on Mdm2 decreases Mdm2 sumoylation in vivo. […] Immunoprecipitated Mdm2 levels were detected using 2A10 antibodies (top). […]\nFIG. 13A-13E. […] (Left) Immunoprecipitated Mdm2 was detected using monoclonal Mdm2 antibodies (2A10, left). […]"}, "Mdm2 [2]": {"molecular_target": "T1, Mdm2", "experiment": "Pulse-chase half-life of Mdm2 wt or S218A in normal human fibroblasts", "format": "cell-based", "set-up": "Normal human fibroblasts (TIG) were transfected with HA-Ub and wt or mutant Ubc9 plasmids as indicated; endogenous in cells; host or cells: normal human fibroblasts (TIG)", "description": "FIG. 16A-16F. A. Activation of p38 increases Mdm2 ubiquitination in vivo. EJ cells were transfected with indicated plasmids. 36 h after transfection cells were harvested and Mdm2 was immunoprecipitated (2A10 antibodies). […] Middle panels show expression levels of Mdm2 and p19^ARF. Lower panels depict phospho-and total p38 levels. B. Mutation at Ser218 of Mdm2 abolishes p38 induced Mdm2 ubiquitination. Normal human fibroblasts were transfected with indicated plasmids. 36 h after transfection cells were harvested and lysed. Mdm2 was immunoprecipitated and proteins were separated on a 8% SDS-PAGE. […] C. Mutation at Ser218 of Mdm2 abrogates p19^ARF-induced Mdm2 degradation. […] Upper panels depict Mdm2-Sumo conjugates (detected via Sumo-1 anitbodies), as well as the 75 kD and 90 kD forms of Mdm2 (detected via Mdm2 antibodies). […] To monitor possible changes in amount of p19 bound to Mdm2 association was monitored using normalized Mdm2 levels at the indicated time-points after UV-treatment.\nNormal human fibroblasts (NHF) were transfected with wt or S218A forms of Mdm2 expression vectors (4 μg). ^35S-methionine (1 mCi) was added to the cell cultures 24 h after transfection for 5 h (pulse) followed by chase (2 mM cold methionine) for the indicated time points. […] Immunoprecipated Mdm2 was washed, separated on 10% SDS-PAGE, and analyzed by autoradiography."}}, "data": [{"molecule": "p19^ARF: Mdm2-regulating protein; in vitro translated, bacculovirus-expressed or transfected (protein) MGRRFLVTVRIQRAGRPLQERVFLVKFVRSRRPRTASCALAFVNMLLRLERILRRGPHRNPGPGDDDGQRSRSSSSAQLRCRFELRGPHYLLPPGARRSAGRLPGHAGGAARVRGSAGCARCLGSPAARLGPRAGTSRHRAIFAFRWVLFVFRWVVFVYRWERRPDRRA", "values": [{"measurement": "Mdm2 sumoylation in Mdm2/p53-/- cells upon p19ARF co-expression", "setting": "Mdm2 [1]", "value": "reduced the degree of Mdm2 sumoylation"}, {"measurement": "effect on half-life of wt Mdm2", "setting": "Mdm2 [2]", "value": "efficiently shorten Mdm2 half-life"}]}]}
